Measurements as given in publication PMC4342241, “Antimicrobial Characterization of Site-Directed Mutagenesis of Porcine Beta Defensin 2” (PLoS ONE, 2015).
Where no end group is shown, it is not given here.

Assays:
[1] = cited from earlier work
Description: In this report, eight amino acids of pBD2 were selected for substitution by arginine or lysine based on rational analysis. It was hypothesized that the major factor defining the antimicrobial activities of defensins was their cationicity or isoelectric point (pI) values. Indeed, the antimicrobial activities of defensins increased with their net charges. Harder et al reported that human beta defensin 3 (hBD3) had the strongest activity among hBD1, 2 and 3, because it had the most net positive charges (hBD1, 2 and 3 has +5, +6, and +11 net pos ...

porcine erythrocytes = assay: Hemolytic activity assay (release of hemoglobin); assay type: cell-based; settings: 0~80 μg/ml, 37°C for 1 h
Protocol: The release of hemoglobin from porcine erythrocytes was used as a measure for the hemolytic activity of defensin as described before. 1mL fresh porcine blood was centrifuged at 1800 g for 10 min for collecting erythrocytes in the presence of heparin to prevent coagulation. The pellet was washed three times and re-suspended in saline solution at the proportion of 1:9. Subsequently, 100 μL erythrocyte solution was mixed with 100 μL of individual mutated defensins (final concentrations were 0~80 μg/ml) in polypropylene 96-well microtiter plates. After incubation at 37°C for 1 h, the plate was centrifuged at 1800 g for 5 min. 100 μL supernatant was transferred to a new 96-well plate separately and the absorbance was measured at 450 nm (reference 630 nm) using a microplate reader. The hemolysis ratio was calculated by comparison with the control samples containing no peptide or 1% Trition-100 [24–25].
Different concentrations of mutant pBD2 protein (100 μL) were separately incubated with erythrocytes (100 μL) at 37°C for 1 h. Less than 10% hemolysis ratio was found at all different concentrations of mpBD2-1~8 (data not shown). No significant differences were observed among different concentrations or among different mutants (P > 0.05).

| Substance | net positive charges [1] | hemolytic activity (in words) (porcine erythrocytes) |
| --- | --- | --- |
| hBD2: human beta defensin 2 (GIGDPVTCLKSGAICHPVFCPRRYKQIGTCGLPGTKCCKKP; ends and bridges not checked; cysteine pairing not given here; UniProt O15263 24-64, looked up) | +6 | – |
| human beta defensin 3 (GIINTLQKYYCRVRGGRCAVLSCLPKEEQIGKCSTRGRKCCRRKK; ends and bridges not checked; cysteine pairing not given here; UniProt P81534 23-67, looked up) [hBD3] | +11 | – |
| Porcine β defensin 2 [pBD2] | – | low hemolytic activities |
| human β defensin 1 (DHYNCVSSGGQCLYSACPIFTKIQGTCYRGKAKCCK; ends and bridges not checked; cysteine pairing not given here; UniProt P60022 33-68, looked up) [hBD1] | +5 | – |
